Experimental data: patent US10653749B2, “Targeting GIV-GEF-GI signaling for treating diverse diseases” (The Regents of the University of California, priority 2015, dated 2020)

B1: TAT-GIV-CT-WT: Recombinant cell-permeable fusion of TAT-PTD, His and HA tags, linker and human GIV C-terminus (aa 1660-1870), wild type; SEQ ID NO: 2 (protein)
chain: MRGSHHHHHHGMASMTGGQQMGRDLYDDDDKDRWGSKLGYGRKKRRQRRRGGSTMSGYPYDVPDYAGSMGGSGHSGETLESRHHKIKTGSPGSEVVTLQQFLEESNKLTSVQIKSSSQENLLDEVMKSLSVSSDFLGKDKPVSCGLARSVSGKTPGDFYDRRTTKPEFLRPGPRKTEDTYFISSAGKPTPGTQGKIKLVKESSLSRQSKDSNPYATLPRASSVISTAEGTTRRTSIHDFLTKDSRLPISVDSPPAAADSNTTAASNVDKVQESRNSKSRSREQQSS
B2: TAT-GIV-CT-FA: GEF-deficient F1685A mutant of the TAT-GIV-CT peptide, dominant-negative; SEQ ID NO: 3 (protein)
chain: MRGSHHHHHHGMASMTGGQQMGRDLYDDDDKDRWGSKLGYGRKKRRQRRRGGSTMSGYPYDVPDYAGSMGGSGHSGETLESRHHKIKTGSPGSEVVTLQQALEESNKLTSVQIKSSSQENLLDEVMKSLSVSSDFLGKDKPVSCGLARSVSGKTPGDFYDRRTTKPEFLRPGPRKTEDTYFISSAGKPTPGTQGKIKLVKESSLSRQSKDSNPYATLPRASSVISTAEGTTRRTSIHDFLTKDSRLPISVDSPPAAADSNTTAASNVDKVQESRNSKSRSREQQSS

Columns and labels:
L6 myotubes = assay: Fluorometric 2-deoxyglucose uptake assay after insulin stimulation; type: cell-based, rat; details: for insulin-stimulated glucose uptake in the basal state: L6 myotubes without PA; for reversal of PA-induced IR (insulin stimulated glucose uptake): PA-treated L6 myotubes
Protocol: (§1) Transfection was carried out with GeneJuice (Novagen) for DNA plasmids or Oligofectamine (Invitrogen) for siRNA oligos according to manufacturer's protocols. Silencer negative Control scrambled (Scr) siRNA used as control was purchased from Ambion and the previously validated (Enomoto et al., 2005) GIV siRNA sequence used was custom-ordered from Dharmacon. For TAT-construct transduction, cells were incubated with 300-800 nM of the TAT-proteins for 30 min at 37° C. prior to three washes with PBS and addition of fresh growth media. For assays involving insulin (Novagen) stimulation of TAT-treated cells, such stimulation was carried out 90 min after transduction.
(§2) Unless otherwise indicated, serum starvation of cells for use in experiments involving insulin stimulation was carried out by growing cells overnight in the presence of no serum (i.e., 0% FBS) in the case of Cos7 and L6 cells, or in the presence of 0.2% FBS in the case of HeLa cells. To induce IR, cells were pre-treated with Sodium Palmitate (PA; Sigma-Aldrich) (0.5 mM, stock solution at 5 mM/5% FFA-free BSA in ethanol) or vehicle control (5% FFA-free BSA in ethanol) for 16 h. To reverse IR with TZDs, cells were treated with 50 μM Pioglitazone (Pio) (Sigma-Aldrich) or DMSO (vehicle control) for 18 h prior to stimulation with 100 nM insulin. Treatment with PKCθ pseudo-substrate inhibitor (Santa Cruz Biotechnologies) was performed at 10 μM for 16 h.
Glucose uptake assays were performed without the use of radioisotopes as described previously (Yamamoto et al., 2006). HeLa and L6 cells grown in 6-well plates were stimulated with insulin in KRH Buffer [50 mM HEPES, 137 mM NaCl, 4.7 mM KCl, 1.85 mM CaCl2, 1.3 mM MgSO4, and 0.1% (w/v) BSA-FFA free, pH 7.4]. Cells were incubated with 1 mM 2-deoxyglucose (2-DG) for 20 min, washed, and subsequently lysed with 0.1 N NaOH. The lysates were transferred into eppendorf tubes and samples were incubated in a water bath maintained at 80° C. for 45 min to degrade endogenous NAD(P)H and NAD(P)^+. An equal volume each of 0.1 N HCl and Triethanolamine (200 mM TEA, pH 8.1) buffer were added to each tube. Samples were subsequently mixed with assay solution [50 mM TEA, 0.02% BSA-FFA free, 10 μM NAD(P)^+, 0.2 U/ml Diaphorase, 6 nM Resazurin sodium, 15 U/ml G6PDH (Santa Cruz Biotechnologies)] and incubated at 37° C. for 90 min. Fluorescence intensity (λex=550 nM, λem=590 nM) was determined using a Tecan Inifinite M1000 PRO and normalized to total protein, as determined using BCA assay (Thermo Scientific).

HeLa cells = assay: Scratch-wound 2D cell migration assay; type: cell-based; details: compared to mock treatment, 12 h and 24 h
Protocol: Scratch-wound assays were done as described (49). Briefly, monolayer cultures (100% confluent) of HeLa cells were incubated first in a 0.2% serum media over night. The following morning, monolayers of HeLa cells were first transduced with TAT peptides for 30 min, then washed three times with PBS and placed again in a 0.2% serum media for 1 h 30 min before scratch-wounding. The wounds were created using a 20 μL pipette tip. Transduction with TAT peptides was repeated at 12 h into the wound healing assay (a total of two times). Healing wounds were monitored by phase-contrast microscopy over the next 24 h and serially photographed using a Canon digital SLR camera. To quantify cell migration (expressed as percent of wound closure) the acquired images were analyzed using Image J software to measure open wound area. Results were expressed as % closure by calculating the difference between the wound area at 0 h, 12 h and that at 24 h divided by the area at 0 h×100. Invasion assays were performed using Corning Transwell plates according to the manufacturer's protocol.
Scratch-wound assays were done as described previously (13). […] Healing wounds were monitored by phase-contrast microscopy over the next 24 h and migration index was quantified (expressed as % wound closure) by measuring the wounded area using Image J software.

[1] = system: GIV, IRS1 and Akt phosphorylation; assay: Metabolic insulin signaling in L6 cells by immunoblotting; type: cell-based, rat; details: TAT-transduced L6 myotubes; for phosphorylation of Akt in response to insulin: pS473; for phosphorylation of IRS1 in response to insulin: pY632-IRS1
Protocol: as §1, §2
Protein samples for immunoblotting were run on SDS/PAGE gels and transferred onto PVDF membranes (Millipore). Membranes were blocked with PBS containing 5% non-fat milk (or with 5% BSA when probing for phosphorylated proteins) before incubation with primary antibodies. GIV was detected using rabbit anti-GIV coiled-coil (Millipore) (1:500); GIV-CT (Santa Cruz Biotechnologies) (1:500); phospho-Tyr1764-GIV (1:500) and phospho-Ser1689-GIV (21st Century Biochemicals) (1:250) antibodies. Other antibodies used in this work include rabbit polyclonal antibodies against Gαi3 (1:333), pan-GP (1:250) and phospho-IRS1 (1:500) from Santa Cruz Biotechnologies; and phospho-Akt (1:250); total Akt (1:250); phospho-ERK (1:250); phospho-AS160 (1:250); total InsRβ (1:500) and total IRS1 (1:500) from Cell signaling. Mouse monoclonal Abs against phospho-InsRβ (1:250), His (1:1000), β-tubulin (1:1000), GFP (1:500) from Santa Cruz Biotechnologies, and control IgG (Bio-Rad Laboratories) were commercially obtained. Goat anti-rabbit and goat anti-mouse Alexa Fluor 680 or IRDye 800 F(ab′)2 secondary antibodies were purchased from Li-Cor Biosciences. Images were processed with ImageJ software (NIH) and assembled as figure panels using Photoshop and Illustrator software (Adobe).

| Molecule | insulin-stimulated glucose uptake in the basal state (L6 myotubes) | reversal of PA-induced IR (insulin stimulated glucose uptake) (L6 myotubes) | reversal of PA-induced IR (insulin stimulated glucose uptake) (L6 myotubes; listed as GIV-CT-WT) | effectiveness in reversing PA-induced IR compared with Pio (L6 myotubes; ~800 nM of WT peptide) | 2D-migration and wound closure (HeLa cells) | phosphorylation of Akt in response to insulin [1] | phosphorylation of IRS1 in response to insulin [1] | 2D-migration and wound closure (HeLa cells; listed as FA) |
| --- | --- | --- | --- | --- | --- | --- | --- | --- |
| B1 | unaffected | effectively reverse | effectively reversed | as effective as 50 μM Pio | enhances | enhancement | enhancement |  |
| B2 | significantly inhibited | not |  |  |  | suppressed | suppressed | delayed wound closure and not |
